The values that follow come from patent EP1682577B1.

Common to all, as to assay: cell-based or functional assay
Test [1] has as its target CRHR1 (UniProt P34998).
For test [2], the target named is Vasoactive Intestinal Peptide 1 receptor (UniProt P32241).
In test [3] the target is Melanocortin 5 receptor (UniProt P33032).
Test [4] addresses Melanocortin 1 receptor (UniProt Q01726).

Chain of CRHR1 (P34998 24-415 limits assumed): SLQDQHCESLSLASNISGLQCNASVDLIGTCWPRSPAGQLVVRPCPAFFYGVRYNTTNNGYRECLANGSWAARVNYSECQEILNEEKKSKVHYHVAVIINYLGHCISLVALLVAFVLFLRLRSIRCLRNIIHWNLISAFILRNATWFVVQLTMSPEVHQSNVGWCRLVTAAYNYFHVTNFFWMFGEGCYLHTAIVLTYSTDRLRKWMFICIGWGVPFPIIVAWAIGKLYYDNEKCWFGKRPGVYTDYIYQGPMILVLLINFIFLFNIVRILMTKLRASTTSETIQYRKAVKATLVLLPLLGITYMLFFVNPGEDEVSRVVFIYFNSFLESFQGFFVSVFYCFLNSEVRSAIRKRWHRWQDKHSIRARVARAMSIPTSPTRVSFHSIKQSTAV
Chain of Melanocortin 5 receptor (P33032 whole entry): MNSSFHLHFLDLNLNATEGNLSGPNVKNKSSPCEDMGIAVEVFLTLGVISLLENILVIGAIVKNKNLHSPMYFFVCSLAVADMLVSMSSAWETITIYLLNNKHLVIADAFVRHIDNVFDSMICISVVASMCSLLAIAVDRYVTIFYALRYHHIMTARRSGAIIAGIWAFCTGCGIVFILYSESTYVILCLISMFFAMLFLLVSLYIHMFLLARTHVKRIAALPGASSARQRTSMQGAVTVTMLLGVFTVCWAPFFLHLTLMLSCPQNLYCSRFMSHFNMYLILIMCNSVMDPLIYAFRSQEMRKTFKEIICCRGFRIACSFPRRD
Chain of Vasoactive Intestinal Peptide 1 receptor (P32241 31-457): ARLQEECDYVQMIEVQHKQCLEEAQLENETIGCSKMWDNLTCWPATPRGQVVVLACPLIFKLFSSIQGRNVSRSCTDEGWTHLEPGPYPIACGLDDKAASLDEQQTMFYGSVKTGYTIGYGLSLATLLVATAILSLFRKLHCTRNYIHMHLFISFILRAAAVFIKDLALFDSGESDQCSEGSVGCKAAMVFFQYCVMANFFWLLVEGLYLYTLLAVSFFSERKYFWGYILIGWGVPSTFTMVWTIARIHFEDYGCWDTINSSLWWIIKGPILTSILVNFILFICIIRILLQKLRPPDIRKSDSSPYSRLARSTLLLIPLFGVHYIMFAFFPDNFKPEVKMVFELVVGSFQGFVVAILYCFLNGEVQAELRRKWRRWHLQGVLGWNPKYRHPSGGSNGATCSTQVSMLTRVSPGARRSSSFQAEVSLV
Chain of Melanocortin 1 receptor (Q01726 whole entry): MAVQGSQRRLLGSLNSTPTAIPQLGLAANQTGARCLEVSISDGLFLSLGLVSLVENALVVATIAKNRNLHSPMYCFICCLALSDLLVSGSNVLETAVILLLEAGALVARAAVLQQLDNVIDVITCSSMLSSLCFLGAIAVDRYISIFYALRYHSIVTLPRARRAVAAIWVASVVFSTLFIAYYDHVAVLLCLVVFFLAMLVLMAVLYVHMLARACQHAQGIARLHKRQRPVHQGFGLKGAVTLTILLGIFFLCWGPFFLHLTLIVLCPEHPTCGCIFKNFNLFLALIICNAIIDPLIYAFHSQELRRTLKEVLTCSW

With “CRF (from UniProt P06850 154-194) (peptide)”, in test [1], the EC50 of cell response (MDC dye) is 0.028 nM, the EC50 of cell response (NY & H30602) turned out to be 0.028 nM, the Fmax/ Fb (MDC dye) is 4.2 and the Fmax/ Fb (NY & H30602) was 4.3.
In test [2], “VIP (from UniProt P01282 125-152) (peptide)” gave an EC50 of cell response (MDC dye) of 0.0024 nM, an EC50 of cell response (TB & H30602) of 0.005 nM, an Fmax/ Fb (MDC dye) of 4.9 and an Fmax/ Fb (TB & H30602) of 5.
“[Nle4-D-Phe7]α-MSH (from UniProt P01189 138-150) (peptide)”: in test [3], the EC50 of cell response (MDC dye) worked out at 2900 nM, the EC50 of cell response (NR& H30602) was determined as 1300 nM, the EC50 of cell response (NY & H30602) was 950 nM and the Fmax/ Fb (MDC dye) stood at 3.6. Besides, in test [3], the Fmax/ Fb (NR& H30602) was found to be 3.2 and the Fmax/ Fb (NY & H30602) is 3.4.
In test [4], “α-MSH (from UniProt P01189 138-150) (peptide)” registered an EC50 of cell response (MDC dye) of 820 nM, an EC50 of cell response (TB & H30602) of 770 nM, an Fmax/ Fb (MDC dye) of 5 and an Fmax/ Fb (TB & H30602) of 5.1.
